According to PMC10761072, “Post-transcriptional capping generates coenzyme A-linked RNA” (RNA Biology, 2023):

Substrate: CC(C)(COP(=O)(O)O)[C@@H](O)C(=O)NCCC(=O)NCCS
Test: purified protein
Assay type: biochemical, Escherichia coli
Details: 10 µM pppAGGAA RNA as acceptor, 500 nM PPAT, 5 mM MgCl2, pH 7.5, 37°C, pPant 10-200 µM

B1: phosphopantetheine adenylyltransferase (PPAT, CoaD) (Escherichia coli K-12) (protein)
chain: MQKRAIYPGTFDPITNGHIDIVTRATQMFDHVILAIAASPSKKPMFTLEERVALAQQATAHLGNVEVVGFSDLMANFARNQHATVLIRGLRAVADFEYEMQLAHMNRHLMPELESVFLMPSKEWSFISSSLVKEVARHQGDVTHFLPENVHQALMAKLA
notes: recombinant full-length enzyme expressed from coaD plasmid and purified; hexamer
**Q.** Which Km does the source give for B1 here?
**A.** The Km was 14 µM.
